Source: patent publication US7033991 (dated 2006)

Biological target: Furin (literature) (UniProt P09958)
Sequence (P09958 108-715): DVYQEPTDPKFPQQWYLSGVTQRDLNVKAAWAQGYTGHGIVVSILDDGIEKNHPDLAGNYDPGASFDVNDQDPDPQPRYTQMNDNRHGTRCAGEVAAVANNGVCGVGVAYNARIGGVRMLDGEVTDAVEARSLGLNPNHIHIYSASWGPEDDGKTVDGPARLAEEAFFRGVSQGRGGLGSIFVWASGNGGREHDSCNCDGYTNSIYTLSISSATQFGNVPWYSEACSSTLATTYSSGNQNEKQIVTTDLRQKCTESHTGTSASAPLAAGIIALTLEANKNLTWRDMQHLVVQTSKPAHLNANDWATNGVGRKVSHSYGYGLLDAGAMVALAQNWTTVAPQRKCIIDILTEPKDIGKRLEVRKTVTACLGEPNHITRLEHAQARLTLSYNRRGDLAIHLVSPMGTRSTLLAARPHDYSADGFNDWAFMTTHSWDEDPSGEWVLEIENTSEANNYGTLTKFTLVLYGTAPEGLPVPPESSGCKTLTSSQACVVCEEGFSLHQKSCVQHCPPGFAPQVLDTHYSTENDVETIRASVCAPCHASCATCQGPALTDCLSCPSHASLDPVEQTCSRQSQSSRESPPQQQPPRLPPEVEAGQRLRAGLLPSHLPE

B1: Proteinase inhibitor 8 (PI8) (protein)
chain: MDDLCEANGTFAISLFKILGEEDNSRNVFFSPMSISSALAMVFMGAKGSTAAQMSQALCLYKDGDIHRGFQSLLSEVNRTGTQYLLRTANRLFGEKTCDFLPDFKEYCQKFYQAELEELSFAEDTEECRKHINDWVAEKTEGKISEVLDAGTVDPLTKLVLVNAIYFKGKWNEQFDRKYTRGMLFKTNEEKKTVQMMFKEAKFKMGYADEVHTQVLELPYVEEELSMVILLPDDNTDLAVVEKALTYEKFKAWTNSEKLTKSKVQVFLPRLKLEESYDLEPFLRRLGMIDAFDEAKADFSGMSTEKNVPLSKVAHKCFVEVNEEGTEAAAATAVVRNSRCSRMEPRFCADHPFLFFIRHHKTNCILFCGRFSSP
Ki: 0.0538 nM
